# From the supplement of paper PMC10567573
# B1: PKD2L1 (parent)
# chain: YSGGGYYLDLPGSRQGSAEALRAL
# Variants of: B1
# Assay: protein stability index of a GFP-peptide fusion (GPS, HEK-293T) (PSI 1-6); higher = more stable
# Settings: c terminus: a fixed tail appended
# 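Note: lentivirally expressed fusions sorted by FACS into six bins by GFP to DsRed ratio, PSI derived from sequencing read proportions per bin multiplied by bin number.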
row,Variant,protein stability index
1,YSGGGYYLDLIGSRQGSAEALRAL,1.94
2,YSGGGYYLDLHGSRQGSAEALRAL,1.44
3,YSGGGYYLDLKGSRQGSAEALRAL,1.91
4,YSGGGYYLDLSGSRQGSAEALRAL,1.73
5,YSGGGYYLDLQGSRQGSAEALRAL,2.53
6,YSGGGYYLDLFGSRQGSAEALRAL,2.12
7,YSGGGYYLDLGGSRQGSAEALRAL,3.43
8,YSGGGYYLDLTGSRQGSAEALRAL,1.86
9,YSGGGYYLDLCGSRQGSAEALRAL,1.82
10,YSGGGYYLDLAGSRQGSAEALRAL,1.89
11,YSGGGYYLDLNGSRQGSAEALRAL,1.97
12,YSGGGYYLDLRGSRQGSAEALRAL,3.15
13,YSGGGYYLDLEGSRQGSAEALRAL,1.29
14,YSGGGYYLDLDGSRQGSAEALRAL,1.21
15,YSGGGYYLDLMGSRQGSAEALRAL,2.68
16,YSGGGYYLDLLGSRQGSAEALRAL,2.54
17,YSGGSYYLDLPGSRQGSAEALRAL,1.83
18,YSGGHYYLDLPGSRQGSAEALRAL,2.28
19,YSGGMYYLDLPGSRQGSAEALRAL,2.68
20,YSGGWYYLDLPGSRQGSAEALRAL,3.35
21,YSGGPYYLDLPGSRQGSAEALRAL,2.41
22,YSGGNYYLDLPGSRQGSAEALRAL,1.76
23,YSGGYYYLDLPGSRQGSAEALRAL,1.71
24,YSGGVYYLDLPGSRQGSAEALRAL,2.1

row,Variant,protein stability index
1,YSGGFYYLDLPGSRQGSAEALRAL,2.17
2,YSGGQYYLDLPGSRQGSAEALRAL,1.39
3,YSGGDYYLDLPGSRQGSAEALRAL,2.28
4,YSGGCYYLDLPGSRQGSAEALRAL,1.25
5,YSGGEYYLDLPGSRQGSAEALRAL,2.06
6,YSGGIYYLDLPGSRQGSAEALRAL,1.33
7,YSGGKYYLDLPGSRQGSAEALRAL,2.65
8,YSGGRYYLDLPGSRQGSAEALRAL,2.67
9,YSGGLYYLDLPGSRQGSAEALRAL,1.6
10,YSGGAYYLDLPGSRQGSAEALRAL,1.14
11,YSGGTYYLDLPGSRQGSAEALRAL,1.96
12,YSGAGYYLDLPGSRQGSAEALRAL,1.56
13,YSGTGYYLDLPGSRQGSAEALRAL,2.53
14,YSGIGYYLDLPGSRQGSAEALRAL,1.78
15,YSGFGYYLDLPGSRQGSAEALRAL,2.49
16,YSGYGYYLDLPGSRQGSAEALRAL,1.65
17,YSGDGYYLDLPGSRQGSAEALRAL,2.86
18,YSGKGYYLDLPGSRQGSAEALRAL,2.37
19,YSGMGYYLDLPGSRQGSAEALRAL,2.35
20,YSGLGYYLDLPGSRQGSAEALRAL,2.15
21,YSGEGYYLDLPGSRQGSAEALRAL,1.8
22,YSGPGYYLDLPGSRQGSAEALRAL,2.03
23,YSGCGYYLDLPGSRQGSAEALRAL,1.95
24,YSGHGYYLDLPGSRQGSAEALRAL,2.45

row,Variant,protein stability index
1,YSGRGYYLDLPGSRQGSAEALRAL,2.48
2,YSGVGYYLDLPGSRQGSAEALRAL,2.22
3,YSGQGYYLDLPGSRQGSAEALRAL,2.23
4,YSGSGYYLDLPGSRQGSAEALRAL,2.08
5,YSGWGYYLDLPGSRQGSAEALRAL,2.44
6,YSGNGYYLDLPGSRQGSAEALRAL,1.67
7,YSGGGYYLFLPGSRQGSAEALRAL,3.62
8,YSGGGYYLWLPGSRQGSAEALRAL,2.87
9,YSGGGYYLMLPGSRQGSAEALRAL,3.33
10,YSGGGYYLPLPGSRQGSAEALRAL,1.66
11,YSGGGYYLYLPGSRQGSAEALRAL,4.13
12,YSGGGYYLQLPGSRQGSAEALRAL,1.24
13,YSGGGYYLHLPGSRQGSAEALRAL,1.95
14,YSGGGYYLELPGSRQGSAEALRAL,2.01
15,YSGGGYYLTLPGSRQGSAEALRAL,3.34
16,YSGGGYYLRLPGSRQGSAEALRAL,2
17,YSGGGYYLLLPGSRQGSAEALRAL,4.93
18,YSGGGYYLALPGSRQGSAEALRAL,4.81
19,YSGGGYYLILPGSRQGSAEALRAL,3.81
20,YSGGGYYLKLPGSRQGSAEALRAL,2.59
21,YSGGGYYLSLPGSRQGSAEALRAL,1.83
22,YSGGGYYLGLPGSRQGSAEALRAL,3.74
23,YSGGGYYLNLPGSRQGSAEALRAL,2.46
24,YSGGGYYLDIPGSRQGSAEALRAL,2.33

row,Variant,protein stability index
1,YSGGGYYLDHPGSRQGSAEALRAL,1.58
2,YSGGGYYLDSPGSRQGSAEALRAL,1.46
3,YSGGGYYLDCPGSRQGSAEALRAL,2.31
4,YSGGGYYLDPPGSRQGSAEALRAL,1.9
5,YSGGGYYLDKPGSRQGSAEALRAL,1.73
6,YSGGGYYLDEPGSRQGSAEALRAL,2.69
7,YSGGGYYLDAPGSRQGSAEALRAL,2.27
8,YSGGGYYLDMPGSRQGSAEALRAL,1.66
9,YSGGGYYLDRPGSRQGSAEALRAL,2.97
10,YSGGGYYLDGPGSRQGSAEALRAL,1.56
11,YSGGGYYLDTPGSRQGSAEALRAL,2.35
12,YSGGGYYLDWPGSRQGSAEALRAL,1.14
13,YSGGGYYLDQPGSRQGSAEALRAL,1.27
14,YSGGGYYLDYPGSRQGSAEALRAL,1.81
15,YSGGGYYLDDPGSRQGSAEALRAL,2.02
16,YSGGGYYLDFPGSRQGSAEALRAL,2.09
17,YSGGGYYLDVPGSRQGSAEALRAL,2.17
18,YSGGGYYLDNPGSRQGSAEALRAL,1.6
19,RSGGGYYLDLPGSRQGSAEALRAL,3.13
20,SSGGGYYLDLPGSRQGSAEALRAL,3.48
21,VSGGGYYLDLPGSRQGSAEALRAL,2.98
22,TSGGGYYLDLPGSRQGSAEALRAL,3.58
23,WSGGGYYLDLPGSRQGSAEALRAL,2.94
24,YSMGGYYLDLPGSRQGSAEALRAL,2.12

row,Variant,protein stability index
1,YSSGGYYLDLPGSRQGSAEALRAL,1.73
2,YSNGGYYLDLPGSRQGSAEALRAL,1.52
3,YSCGGYYLDLPGSRQGSAEALRAL,2.41
4,YSAGGYYLDLPGSRQGSAEALRAL,1.58
5,YSLGGYYLDLPGSRQGSAEALRAL,2.87
6,YSTGGYYLDLPGSRQGSAEALRAL,1.93
7,YSKGGYYLDLPGSRQGSAEALRAL,2.37
8,YSVGGYYLDLPGSRQGSAEALRAL,2.21
9,YSYGGYYLDLPGSRQGSAEALRAL,1.7
10,YSIGGYYLDLPGSRQGSAEALRAL,2.27
11,YSPGGYYLDLPGSRQGSAEALRAL,2.31
12,YSHGGYYLDLPGSRQGSAEALRAL,2.02
13,YSFGGYYLDLPGSRQGSAEALRAL,1.45
14,YSDGGYYLDLPGSRQGSAEALRAL,2.5
15,YSRGGYYLDLPGSRQGSAEALRAL,2.47
16,YSWGGYYLDLPGSRQGSAEALRAL,2.09
17,YSEGGYYLDLPGSRQGSAEALRAL,2.06
18,YSQGGYYLDLPGSRQGSAEALRAL,1.52
19,YFGGGYYLDLPGSRQGSAEALRAL,1.93
20,YGGGGYYLDLPGSRQGSAEALRAL,1.45
21,YWGGGYYLDLPGSRQGSAEALRAL,2.13
22,YPGGGYYLDLPGSRQGSAEALRAL,3.27
23,YTGGGYYLDLPGSRQGSAEALRAL,2.59
24,YHGGGYYLDLPGSRQGSAEALRAL,2.88

row,Variant,protein stability index
1,YEGGGYYLDLPGSRQGSAEALRAL,3
2,YVGGGYYLDLPGSRQGSAEALRAL,3.97
3,YRGGGYYLDLPGSRQGSAEALRAL,2.51
4,YLGGGYYLDLPGSRQGSAEALRAL,1.4
5,YIGGGYYLDLPGSRQGSAEALRAL,2.34
6,YNGGGYYLDLPGSRQGSAEALRAL,1.84
7,YQGGGYYLDLPGSRQGSAEALRAL,2.3
8,YMGGGYYLDLPGSRQGSAEALRAL,1.92
9,YDGGGYYLDLPGSRQGSAEALRAL,2.45
10,YYGGGYYLDLPGSRQGSAEALRAL,2.19
11,YKGGGYYLDLPGSRQGSAEALRAL,2.22
12,YSGGGAYLDLPGSRQGSAEALRAL,2.27
13,YSGGGKYLDLPGSRQGSAEALRAL,2.66
14,YSGGGSYLDLPGSRQGSAEALRAL,3.28
15,YSGGGQYLDLPGSRQGSAEALRAL,2.83
16,YSGGGWYLDLPGSRQGSAEALRAL,5.5
17,YSGGGTYLDLPGSRQGSAEALRAL,2.75
18,YSGGGEYLDLPGSRQGSAEALRAL,3.37
19,YSGGGDYLDLPGSRQGSAEALRAL,2.57
20,YSGGGVYLDLPGSRQGSAEALRAL,2.24
21,YSGGGPYLDLPGSRQGSAEALRAL,2.42
22,YSGGGRYLDLPGSRQGSAEALRAL,2.64
23,YSGGGFYLDLPGSRQGSAEALRAL,2.25
24,YSGGGCYLDLPGSRQGSAEALRAL,2.75

row,Variant,protein stability index
1,YSGGGGYLDLPGSRQGSAEALRAL,1.84
2,YSGGGHYLDLPGSRQGSAEALRAL,2.16
3,YSGGGMYLDLPGSRQGSAEALRAL,2.16
4,YSGGGIYLDLPGSRQGSAEALRAL,1.79
5,YSGGGLYLDLPGSRQGSAEALRAL,1.59
6,YSGGGNYLDLPGSRQGSAEALRAL,2.83
7,YSGGGYYWDLPGSRQGSAEALRAL,2.72
8,YSGGGYYVDLPGSRQGSAEALRAL,2.45
9,YSGGGYYQDLPGSRQGSAEALRAL,2.26
10,YSGGGYYYDLPGSRQGSAEALRAL,2.03
11,YSGGGYYGDLPGSRQGSAEALRAL,1.67
12,YSGGGYYMDLPGSRQGSAEALRAL,3.21
13,YSGGGYYNDLPGSRQGSAEALRAL,1.73
14,YSGGGYYFDLPGSRQGSAEALRAL,2.66
15,YSGGGYYCDLPGSRQGSAEALRAL,1.69
16,YSGGGYYKDLPGSRQGSAEALRAL,1.42
17,YSGGGYYADLPGSRQGSAEALRAL,2.12
18,YSGGGYYTDLPGSRQGSAEALRAL,3.55
19,YSGGGYYPDLPGSRQGSAEALRAL,1.99
20,YSGGGYYHDLPGSRQGSAEALRAL,4.24
21,YSGGGYYRDLPGSRQGSAEALRAL,2.08
22,YSGGGYYIDLPGSRQGSAEALRAL,2.77
23,YSGGGYYSDLPGSRQGSAEALRAL,1.37
24,YSGGGYYEDLPGSRQGSAEALRAL,2.9

row,Variant,protein stability index
1,YSGGGYYDDLPGSRQGSAEALRAL,1.99
2,YSGGGYGLDLPGSRQGSAEALRAL,2.24
3,YSGGGYCLDLPGSRQGSAEALRAL,1.93
4,YSGGGYILDLPGSRQGSAEALRAL,1.39
5,YSGGGYELDLPGSRQGSAEALRAL,3.37
6,YSGGGYFLDLPGSRQGSAEALRAL,1.56
7,YSGGGYWLDLPGSRQGSAEALRAL,1.91
8,YSGGGYRLDLPGSRQGSAEALRAL,2.06
9,YSGGGYLLDLPGSRQGSAEALRAL,1.66
10,YSGGGYALDLPGSRQGSAEALRAL,2.17
11,YSGGGYDLDLPGSRQGSAEALRAL,3.25
12,YSGGGYVLDLPGSRQGSAEALRAL,2.21
13,YSGGGYHLDLPGSRQGSAEALRAL,2.26
14,YSGGGYSLDLPGSRQGSAEALRAL,3.21
15,YSGGGYKLDLPGSRQGSAEALRAL,2.75
16,YSGGGYPLDLPGSRQGSAEALRAL,2.96
17,YSGGGYMLDLPGSRQGSAEALRAL,1.61
18,YSGGGYTLDLPGSRQGSAEALRAL,2.71
19,YSGGGYNLDLPGSRQGSAEALRAL,2.59
20,YSGGGYQLDLPGSRQGSAEALRAL,2.4
